{"source": "paper PMC9980635", "about": "(mAbs, 2023)", "binders": {"B1": {"name": "mAb B (antibody, V domains shown)", "VH": "QVQLVQSGAEVKKPGSSVKVSCKASGYIFTNYNIHWVKKSPGQGLEWIGAIYPGNGDAPYSQKFQGKATLTADTSTSTTYMELSSLRSEDTAVYYCVRANWDVAFAYWGQGTLVTVSS", "VL": "DIQMTQSPSSLSASVGDRVTITCKASQDIDRYMAWYQDKPGKAPRLLIHDTSTLQSGVPSRFSGSGSGRDYTLTISNLEPEDFATYYCLQYDNLWTFGGGTKVEIK"}}, "key": {"[1]": {"target": "cynoLAMP1 presented on the surface of engineered cell lines (Macaca fascicularis, UniProt A0A2K5UUW0)", "assay": "flow cytometry on cells"}, "[2]": {"target": "human LAMP-1 extracellular domain (Homo sapiens, UniProt P11279)", "sequence (P11279 29-382)": "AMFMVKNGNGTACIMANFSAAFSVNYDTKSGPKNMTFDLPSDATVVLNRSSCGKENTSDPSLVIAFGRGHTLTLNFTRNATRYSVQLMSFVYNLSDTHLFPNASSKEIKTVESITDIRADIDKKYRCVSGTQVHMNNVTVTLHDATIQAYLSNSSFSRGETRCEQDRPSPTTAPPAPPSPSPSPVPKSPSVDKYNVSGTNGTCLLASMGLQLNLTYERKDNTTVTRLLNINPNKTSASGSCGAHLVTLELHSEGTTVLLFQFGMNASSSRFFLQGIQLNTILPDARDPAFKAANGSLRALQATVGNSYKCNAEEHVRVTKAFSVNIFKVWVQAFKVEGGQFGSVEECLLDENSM", "assay": "BLI"}, "[3]": {"target": "murine LAMP-1 extracellular domain (Mus musculus, UniProt P11438)", "sequence (P11438 25-370)": "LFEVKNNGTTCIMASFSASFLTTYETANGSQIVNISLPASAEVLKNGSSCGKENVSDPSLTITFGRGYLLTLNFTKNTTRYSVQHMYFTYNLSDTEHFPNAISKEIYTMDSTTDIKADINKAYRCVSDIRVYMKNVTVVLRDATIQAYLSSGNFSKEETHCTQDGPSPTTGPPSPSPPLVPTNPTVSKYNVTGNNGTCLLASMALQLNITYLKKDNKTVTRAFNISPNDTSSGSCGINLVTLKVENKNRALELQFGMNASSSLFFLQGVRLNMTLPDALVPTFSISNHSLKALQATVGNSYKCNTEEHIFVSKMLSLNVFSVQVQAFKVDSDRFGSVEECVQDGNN", "assay": "BLI"}, "[4]": {"target": "cynomolgus LAMP-1 extracellular domain (Macaca fascicularis, UniProt A0A2K5UUW0)", "assay": "BLI"}}}
{"binder": "B1", "values": [{"measurement": "binding result", "setting": "[1]", "value": "no binding"}, {"measurement": "Kd", "setting": "[2]", "value": 12, "unit": "nM"}, {"measurement": "binding result", "setting": "[3]", "value": "no binding (tested: 200 nM)"}, {"measurement": "binding result", "setting": "[4]", "value": "no binding (tested: 200 nM)"}]}
